# B1: ABCB7 (Homo sapiens) (protein)
# chain: HSAILIRPLVSVSGSGPQWRPHQLGALGTARAYQIPESLKSITWQRLGKGNSGQFLDAAKALQVWPLIEKRTCWHGHAGGGLHTDPKEGLKDVDTRKIIKAMLSYVWPKDRPDLRARVAISLGFLGGAKAMNIVVPFMFKYAVDSLNQMSGNMLNLSDAPNTVATMATAVLIGYGVSRAGAAFFNEVRNAVFGKVAQNSIRRIAKNVFLHLHNLDLGFHLSRQTGALSKAIDRGTRGISFVLSALVFNLLPIMFEVMLVSGVLYYKCGAQFALVTLGTLGTYTAFTVAVTRWRTRFRIEMNKADNDAGNAAIDSLLNYETVKYFNNERYEAQRYDGFLKTYETASLKSTSTLAMLNFGQSAIFSVGLTAIMVLASQGIVAGTLTVGDLVMVNGLLFQLSLPLNFLGTVYRETRQALIDMNTLFTLLKVDTQIKDKVMASPLQITPQTATVAFDNVHFEYIEGQKVLSGISFEVPAGKKVAIVGGSGSGKSTIVRLLFRFYEPQKGSIYLAGQNIQDVSLESLRRAVGVVPQDAVLFHNTIYYNLLYGNISASPEEVYAVAKLAGLHDAILRMPHGYDTQVGERGLKLSGGEKQRVAIARAILKDPPVILYDEATSSLDSITEETILGAMKDVVKHRTSIFIAHRLSTVVDADEIIVLDQGKVAERGTHHGLLANPHSIYSEMWHTQSSRVQNHDNPKWEAKKENISKEEERKKLQEEIVNSVKGCGNCSC
# B2: ABCB7 (Homo sapiens; E433Q) (protein)
# chain: HSAILIRPLVSVSGSGPQWRPHQLGALGTARAYQIPESLKSITWQRLGKGNSGQFLDAAKALQVWPLIEKRTCWHGHAGGGLHTDPKEGLKDVDTRKIIKAMLSYVWPKDRPDLRARVAISLGFLGGAKAMNIVVPFMFKYAVDSLNQMSGNMLNLSDAPNTVATMATAVLIGYGVSRAGAAFFNEVRNAVFGKVAQNSIRRIAKNVFLHLHNLDLGFHLSRQTGALSKAIDRGTRGISFVLSALVFNLLPIMFEVMLVSGVLYYKCGAQFALVTLGTLGTYTAFTVAVTRWRTRFRIEMNKADNDAGNAAIDSLLNYETVKYFNNERYEAQRYDGFLKTYETASLKSTSTLAMLNFGQSAIFSVGLTAIMVLASQGIVAGTLTVGDLVMVNGLLFQLSLPLNFLGTVYRQTRQALIDMNTLFTLLKVDTQIKDKVMASPLQITPQTATVAFDNVHFEYIEGQKVLSGISFEVPAGKKVAIVGGSGSGKSTIVRLLFRFYEPQKGSIYLAGQNIQDVSLESLRRAVGVVPQDAVLFHNTIYYNLLYGNISASPEEVYAVAKLAGLHDAILRMPHGYDTQVGERGLKLSGGEKQRVAIARAILKDPPVILYDEATSSLDSITEETILGAMKDVVKHRTSIFIAHRLSTVVDADEIIVLDQGKVAERGTHHGLLANPHSIYSEMWHTQSSRVQNHDNPKWEAKKENISKEEERKKLQEEIVNSVKGCGNCSC
# B3: ABCB7 (Homo sapiens; E433D) (protein)
# chain: HSAILIRPLVSVSGSGPQWRPHQLGALGTARAYQIPESLKSITWQRLGKGNSGQFLDAAKALQVWPLIEKRTCWHGHAGGGLHTDPKEGLKDVDTRKIIKAMLSYVWPKDRPDLRARVAISLGFLGGAKAMNIVVPFMFKYAVDSLNQMSGNMLNLSDAPNTVATMATAVLIGYGVSRAGAAFFNEVRNAVFGKVAQNSIRRIAKNVFLHLHNLDLGFHLSRQTGALSKAIDRGTRGISFVLSALVFNLLPIMFEVMLVSGVLYYKCGAQFALVTLGTLGTYTAFTVAVTRWRTRFRIEMNKADNDAGNAAIDSLLNYETVKYFNNERYEAQRYDGFLKTYETASLKSTSTLAMLNFGQSAIFSVGLTAIMVLASQGIVAGTLTVGDLVMVNGLLFQLSLPLNFLGTVYRDTRQALIDMNTLFTLLKVDTQIKDKVMASPLQITPQTATVAFDNVHFEYIEGQKVLSGISFEVPAGKKVAIVGGSGSGKSTIVRLLFRFYEPQKGSIYLAGQNIQDVSLESLRRAVGVVPQDAVLFHNTIYYNLLYGNISASPEEVYAVAKLAGLHDAILRMPHGYDTQVGERGLKLSGGEKQRVAIARAILKDPPVILYDEATSSLDSITEETILGAMKDVVKHRTSIFIAHRLSTVVDADEIIVLDQGKVAERGTHHGLLANPHSIYSEMWHTQSSRVQNHDNPKWEAKKENISKEEERKKLQEEIVNSVKGCGNCSC
# B4: ABCB7 (Homo sapiens; E433K) (protein)
# chain: HSAILIRPLVSVSGSGPQWRPHQLGALGTARAYQIPESLKSITWQRLGKGNSGQFLDAAKALQVWPLIEKRTCWHGHAGGGLHTDPKEGLKDVDTRKIIKAMLSYVWPKDRPDLRARVAISLGFLGGAKAMNIVVPFMFKYAVDSLNQMSGNMLNLSDAPNTVATMATAVLIGYGVSRAGAAFFNEVRNAVFGKVAQNSIRRIAKNVFLHLHNLDLGFHLSRQTGALSKAIDRGTRGISFVLSALVFNLLPIMFEVMLVSGVLYYKCGAQFALVTLGTLGTYTAFTVAVTRWRTRFRIEMNKADNDAGNAAIDSLLNYETVKYFNNERYEAQRYDGFLKTYETASLKSTSTLAMLNFGQSAIFSVGLTAIMVLASQGIVAGTLTVGDLVMVNGLLFQLSLPLNFLGTVYRKTRQALIDMNTLFTLLKVDTQIKDKVMASPLQITPQTATVAFDNVHFEYIEGQKVLSGISFEVPAGKKVAIVGGSGSGKSTIVRLLFRFYEPQKGSIYLAGQNIQDVSLESLRRAVGVVPQDAVLFHNTIYYNLLYGNISASPEEVYAVAKLAGLHDAILRMPHGYDTQVGERGLKLSGGEKQRVAIARAILKDPPVILYDEATSSLDSITEETILGAMKDVVKHRTSIFIAHRLSTVVDADEIIVLDQGKVAERGTHHGLLANPHSIYSEMWHTQSSRVQNHDNPKWEAKKENISKEEERKKLQEEIVNSVKGCGNCSC
# Key:
# purified protein = substrate: Nc1ncnc2c1ncn2[C@@H]1O[C@H](COP(=O)(O)OP(=O)(O)OP(=O)(O)O)[C@@H](O)[C@H]1O; assay: purified protein; assay type: biochemical, Homo sapiens; conditions: Mg2+ nucleotide binding domain
# [1] = substrate: Nc1ncnc2c1ncn2[C@@H]1O[C@H](COP(=O)(O)OP(=O)(O)OP(=O)(O)O)[C@@H](O)[C@H]1O; assay: Michaelis-Menten ATPase kinetics; assay type: biochemical, Homo sapiens; conditions: Mg2+ nucleotide binding domain
Protein,Km (purified protein),Vmax (purified protein),Km [1],Vmax [1]
B1,5300 ± 1000 µM,0.58 µM/min,–,–
B2,–,–,710 ± 300 µM,0.28 µM/min
B3,–,–,850 ± 280 µM,0.35 µM/min
B4,–,–,490 ± 110 µM,0.37 µM/min
